Results as given in US20170020994.

Experiments:
[1] = tested on: RA-TALE_ICP4 (ICP4-TALE-VP16) (synthetic construct); assay: cell_activity; conditions: Fluc reporter with ICP4 promoter, 293T
[2] = tested on: RA-TALE_ICP0 (ICP0-TALE-VP16) (synthetic construct); assay: cell_activity; conditions: Fluc reporter with ICP0 promoter, 293T

Row | Sequence | activity (fold activation) [1] | activity (fold activation) [2]
1 | GGCAGATGGCGCGGATG (double strand) [ICP4 promoter TALE site] | 60 | 
2 | GGGACGCGCGGCCAT (double strand) [ICP0 promoter TALE site] |  | 20
